Earlier results, collected in PMC6063947.

Biological target: Asp61 (UniProt position 61, VMGLVDAIPMI)
Experiment: NMR

In the case of “ATP synthase subunit c (F0 sector, proteolipid) (Escherichia coli)”, the pKa is given as 7.1.
